We go through one molecule from patent US6642368B1, “Programmed cell death and caspase-12” (The General Hospital Corporation, priority 1998, dated 2003).

The test system of assay [1] is pro-ICE, pro-caspase-2 and pro-caspase-3. The assay can be described thus: In vitro cleavage of [35S]-labeled proteins by partially purified caspase-12Δ2. It is filed as biochemical. As to conditions: 1 hr or 3 hr incubation. The source says:
(§1) FIGS. 8A-8C Protease activity of caspase-12Δ2. […] Proteins were run on 15% gel and detected by Coomassie brilliant blue staining. Arrowheads indicate polypeptides derived from caspase-12 proteins. FIG. 8B is a diagram of processing sites on caspase-12Δ and caspase-12Δ2. […] Reaction was stopped by boiling with the addition of sample buffer for SDS-polyacrylamide gel electrophoresis. The molecular sizes in kilodaltons are indicated at the left.
(§2) ICE, casp-2 and casp-3 were cloned into a pET-15b vector (Novagen) and their expression was induced in the presence of 0.2-0.3 mM IPTG (Wang, S., et a., J. Biol. Chem. 271:20580-20587 (1996); Cryns, V. L., et al., J. Biol. Chem. 271:31277-31282 (1996)). Bacterial lysates containing the ICE-like proteases were prepared as described (Wang, S., et al., J. Biol. Chem. 271:20580-20587 (1996); Cryns, V. L., et al., J. Biol. Chem. 271:31277-31282 (1996)). [^35S]-labeled proteins were prepared by in vitro transcription and translation using a TNT coupled reticulocyte lysate system (Promega) and [^35S]methionine (Amersham). Labeled proteins were incubated at 37° C. with purified caspase-12Δ2 or at 30° C. with E. coli lysates containing the caspase family members. […] Cleavage products were analyzed by either 10- or 15% SDS-polyacrylamide gel electrophoresis. […]

The subject of a further assay is pro-caspase-12. The assay can be described thus: In vitro cleavage of [35S]-labeled protein by partially purified caspase-12Δ2. As to conditions: 1 hr at 37° C., 0.1 μg enzyme. It is filed as biochemical, mouse.
From the text: as §1, §2

The test system of assay [2] is pro-IL-1β and poly(ADP-ribose) polymerase. The assay can be described thus: Cleavage of preferred ICE and caspase-3 substrates by purified caspase-12Δ2. Type of assay: biochemical. As to the method: as §2, with “members. The reaction mixture contained 25 mM Hepes (pH 7.5) with 5 mM EDTA, 5 mM dithiothreitol, 10% sucrose, 10 μg/ml leupeptin and 250 μM phenylmethylsulfonyl fluoride. Amount of proteins used for cleavage reaction were: 0.1 μg for partially purified caspase-12Δ2, 25-70 μg for E. coli lysate.” for “members.”

B1: caspase-12Δ2: truncated His-tagged caspase-12, amino acid residues 145-419 of SEQ ID NO:2 (protein)
chain: TLKLCPRDQFCKIKTERAKEIYPVMEKEGRTRLALIICNKKFDYLFDRDNADTDILNMQELLENLGYSVVLKENLTAQEMETELMQFAGRPEHQSSDSTFLVFMSHGILEGICGVKHRNKKPDVLHDDTIFKIFNNSNCRSLRNKPKILIMQACRGRYNGTIWVSTNKGIATADTDEERVLSCKWNNSITKAHVETDFIAFKSSTPHNISWKVGKTGSLFISKLIDCFKKYCWCYHLEEIFRKVQHSFEVPGELTQMPTIERVSMTRYFYLFPGN
modifications: His tag
As to B1, the “cleavage of pro-ICE, pro-caspase-2 and pro-caspase-3” value in assay [1] was “only faint bands of cleavage products”. Moreover, in the assay with pro-caspase-12, the “processing of pro-caspase-12 (48 kDa) into fragments” value is “can efficiently process”. Further, the “cleavage of pro-IL-1β and poly(ADP-ribose) polymerase” value in assay [2] is given as “little activity”.
